B1: Staphylokinase (Staphylococcus aureus (strain N315)), Q99SU7 (parent)
chain: MLKRSLLFLTVLLLLFSFSSITNEVSASSSFDKGKYKKGDDASYFEPTGPYLMVNVTGVDSKGNELLSPHYVEFPIKPGTTLTKEKIEYYVEWALDATAYKEFRVVELDPSAKIEVTYYDKNKKKEETKSFPITEKGFVVPDLSEHIKNPGFNLITKVVIEKK

Variants of: B1
Conditions: with plmn_human PLG

Variant | effect of a mutation on the interaction
P69L | disrupting interaction

Variants of: B1
Conditions: with plmn_human PLG
Remark: another data set of the same source

Variant | effect of a mutation on the interaction
P69L | decreasing interaction

Variants of: B1
Conditions: with plmn_human PLG
Remark: another data set of the same source

Variant | effect of a mutation on the interaction
Y71F | decreasing interaction
V72F | decreasing interaction

Variants of: B1
Conditions: with plmn_human PLG
Remark: another data set of the same source

Variant | effect of a mutation on the interaction
V72Y | decreasing interaction

Variants of: B1
Conditions: with plmn_human PLG
Remark: another data set of the same source

Variant | effect of a mutation on the interaction
V72A | disrupting interaction

Variants of: B1
Conditions: with plmn_human PLG
Remark: another data set of the same source

Variant | effect of a mutation on the interaction
V72A | decreasing interaction
